One block for each molecule: values may come before it.
Key:
[1] = molecular target: Cse4-NCP (Cse4 containing nucleosome core particle) (budding yeast) (UniProt P36012); experiment: cross-linking
Ame1/Okp1 complex = Ame1/Okp1 complex (budding yeast, UniProt P38313;P53298); experiment: pull-down
[2] = molecular target: Mif2* (Mif2-6xHis-6xFlag wild type, dephosphorylated and in vitro phosphorylated by Cdc5) (budding yeast, UniProt P35201 1-549); experiment: pull-down
Dsn1/Nsl1 = molecular target: T1, Dsn1/Nsl1 (budding yeast, UniProt P40568;Q12143); experiment: SEC
T1 sequence 1: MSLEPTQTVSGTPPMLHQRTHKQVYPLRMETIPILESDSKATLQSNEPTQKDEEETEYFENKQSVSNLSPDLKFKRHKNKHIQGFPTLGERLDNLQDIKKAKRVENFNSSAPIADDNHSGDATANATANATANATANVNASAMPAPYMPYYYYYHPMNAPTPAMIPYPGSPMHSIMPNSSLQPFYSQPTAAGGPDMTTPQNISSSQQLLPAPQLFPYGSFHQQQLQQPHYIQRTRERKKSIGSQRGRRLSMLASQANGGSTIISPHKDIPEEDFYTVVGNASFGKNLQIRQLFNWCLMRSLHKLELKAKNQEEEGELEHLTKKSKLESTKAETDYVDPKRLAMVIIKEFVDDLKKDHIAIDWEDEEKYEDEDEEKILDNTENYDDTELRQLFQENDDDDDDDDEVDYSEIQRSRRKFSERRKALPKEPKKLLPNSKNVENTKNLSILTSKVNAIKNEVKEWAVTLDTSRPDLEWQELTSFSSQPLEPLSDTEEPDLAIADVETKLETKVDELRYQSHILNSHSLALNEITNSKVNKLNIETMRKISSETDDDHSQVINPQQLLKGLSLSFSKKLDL
T1 sequence 2: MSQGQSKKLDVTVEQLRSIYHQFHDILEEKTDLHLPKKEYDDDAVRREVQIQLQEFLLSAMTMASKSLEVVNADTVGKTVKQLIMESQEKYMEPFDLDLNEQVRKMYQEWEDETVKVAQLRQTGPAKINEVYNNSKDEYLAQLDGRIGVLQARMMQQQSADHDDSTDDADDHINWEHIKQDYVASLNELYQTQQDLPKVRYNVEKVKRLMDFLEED

Spc24/25 complex = Spc24/25 complex (budding yeast, UniProt Q04477;P40014); experiment: cross-linking
Spc24/25 complex, sequence (Q04477 whole entry, chain 1 of 2): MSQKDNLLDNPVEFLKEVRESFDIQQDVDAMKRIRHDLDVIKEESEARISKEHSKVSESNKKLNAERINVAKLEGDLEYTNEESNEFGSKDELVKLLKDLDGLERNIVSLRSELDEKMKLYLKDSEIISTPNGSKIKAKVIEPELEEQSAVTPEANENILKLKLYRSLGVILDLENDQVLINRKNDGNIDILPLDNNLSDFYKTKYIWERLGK
Spc24/25 complex, sequence (P40014 whole entry, chain 2 of 2): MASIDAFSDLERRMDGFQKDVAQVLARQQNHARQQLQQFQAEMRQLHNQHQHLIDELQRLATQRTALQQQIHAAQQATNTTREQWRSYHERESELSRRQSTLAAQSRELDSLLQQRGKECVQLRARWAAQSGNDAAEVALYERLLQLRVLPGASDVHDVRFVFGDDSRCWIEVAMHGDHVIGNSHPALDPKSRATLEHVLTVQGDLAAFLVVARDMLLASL

Ame1/Okp1 complex, sequence (P38313 whole entry, chain 1 of 2): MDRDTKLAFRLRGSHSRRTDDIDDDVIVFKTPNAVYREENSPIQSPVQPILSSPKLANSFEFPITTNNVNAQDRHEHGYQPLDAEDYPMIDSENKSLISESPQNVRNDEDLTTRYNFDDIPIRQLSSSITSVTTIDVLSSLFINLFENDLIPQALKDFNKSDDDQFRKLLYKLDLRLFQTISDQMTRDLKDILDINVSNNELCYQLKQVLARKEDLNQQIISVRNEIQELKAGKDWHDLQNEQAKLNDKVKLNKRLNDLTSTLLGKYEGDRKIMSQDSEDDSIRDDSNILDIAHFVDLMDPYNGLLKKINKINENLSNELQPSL
Ame1/Okp1 complex, sequence (P53298 whole entry, chain 2 of 2): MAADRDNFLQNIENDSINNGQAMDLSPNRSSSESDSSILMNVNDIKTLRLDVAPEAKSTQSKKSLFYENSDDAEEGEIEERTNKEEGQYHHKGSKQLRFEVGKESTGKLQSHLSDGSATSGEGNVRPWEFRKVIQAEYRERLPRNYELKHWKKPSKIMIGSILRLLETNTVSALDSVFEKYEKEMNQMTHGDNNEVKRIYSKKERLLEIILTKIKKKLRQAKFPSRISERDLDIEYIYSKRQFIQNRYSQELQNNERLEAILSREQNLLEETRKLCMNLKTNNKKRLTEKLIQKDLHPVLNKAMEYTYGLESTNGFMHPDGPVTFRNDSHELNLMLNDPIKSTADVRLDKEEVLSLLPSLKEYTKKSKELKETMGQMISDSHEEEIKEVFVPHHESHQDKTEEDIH

fold decrease of KD with MTW1c(Dsn1^S240D,S250D) against wild-type MTW1c [1]: 20 fold
Molecule: Mif2* (Mif2-6xHis-6xFlag wild type, dephosphorylated and in vitro phosphorylated by Cdc5) (from UniProt P35201 1-549) (natural protein)

binding result (Ame1/Okp1 complex): binds
binding result [2]: binds
binding result (Dsn1/Nsl1): binds
B1: Mtw1/Nnf1 (complex)
chain 1: MSAPTMRSTSILTEHLGYPPISLVDDIINAVNEIMYKCTAAMEKYLLSKSKIGEEDYGEEIKSGVAKLESLLENSVDKNFDKLELYVLRNVLRIPEEYLDANVFRLENQKDLVIVDENELKKSEEKLREKVNDVELAFKKNEMLLKRVTKVKRLLFTIRGFKQKLNELLKCKDDVQLQKILESLKPIDDTMTLLTDSLRKLYVDSESTSSTEEVEALLQRLKTNGKQNNKDFRTRYIDIRTNNVLRKLGLLGDKEDEKQSAKPDARTQAGDIVSIDIEEPQLDLLDDVL
chain 2: MVNSHGIRYIRLKQVFNRALDQSISKLQSWDKVSSCFPQYVNSKQGAINVANCQRQLTEFWTELCQREFKEIMEERNVEQKLNELDELILEAKERYTDRDQDEVNKGPAIDELSSKELVECHLYSQRMHAIHEIDERLAKVNEMNDQLAQELKDLETQVEVEKNEIGKMYDEYLGSHTDQPANVLLVQSLNDMVLELKENY

binding result (Ame1/Okp1 complex): binds
B2: Mif2^Δ200-230 mutant, in vitro phosphorylated by Cdc5 (natural protein)
chain: MDYMKLGLKSRKTGIDVKQDIPKDEYSMENIDDFFKDDETSLISMRRKSRRKSSLFLPSTLNGDTKNVLPPFLQSYKSQDDEVVQSPSGKGDGSRRSSLLSHQSNFLSPANDFEPIEEEPEQEENDIRGNDFATPITQKLSKPTYKRKYSTRYSLDTSESPSVRLTPDRITNKNVYSDVPDLVADEDDDDRVNTSLNTSDSGSDSASDSDGDNTYQEVEEEAEVNTNDNEDDYIRRQASDVVRTDSIIDRNGLRKSTRVKVAPLQYWRNEKIVYKRKSNKPVLDIDKIVTYDESEDEEEILAAQRRKKQKKKPTPTRPYNYVPTGRPRGRPKKDPNAKENLIPEDPNEDIIERIESGGIENGEWLKHGILEANVKISDTKEETKDEIIAFAPNLSQTEQVKDTKDENFALEIMFDKHKEYFASGILKLPAISGQKKLSNSFRTYITFHVIQGIVEVTVCKNKFLSVKGSTFQIPAFNEYAIANRGNDEAKMFFVQVTVSEDANDDNDKELDSTFDTFG

Kd (Spc24/25 complex): 2.6 µM
B3: Cnn1^60-84 peptide (peptide)
peptide: NKDPNEVRSFLQDLSQVLARKSQGN
